From US20110002929A1 come the findings set out here.

This assay deals with human RANK-L (human) (UniProt O14788). The assay is described as follows: cell-based or functional assay.
Sequence of human RANK-L (human) (O14788 140-317 limits assumed): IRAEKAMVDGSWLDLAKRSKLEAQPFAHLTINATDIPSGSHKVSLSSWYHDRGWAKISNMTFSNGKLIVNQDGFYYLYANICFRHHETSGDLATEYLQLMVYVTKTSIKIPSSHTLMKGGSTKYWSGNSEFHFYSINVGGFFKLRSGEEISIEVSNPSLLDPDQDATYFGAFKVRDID

“osteoprotegerin (from UniProt O00300 22-401) (receptor)” gave an RANK-L induced NF-kappaB activation (luciferase reporter, HEK293T cells), IC50 of 6.03 nM.
